# What was measured:
# [1] = molecular target: T1, H-NS-His in cell lysate (Escherichia coli K12 MG1655?) (UniProt P0ACF8); test: EMSA + anti-His Western; conditions: 0.01 mM EDTA, 0.01 mM DTT, 3.3 mM imidazole, 40 min at 30°C
# T1 sequence: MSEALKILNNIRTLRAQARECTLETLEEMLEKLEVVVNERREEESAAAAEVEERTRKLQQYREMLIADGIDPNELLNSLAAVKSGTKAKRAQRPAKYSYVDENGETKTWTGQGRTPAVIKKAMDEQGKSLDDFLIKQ
# [2] = molecular target: T2, H-NS (purified recombinant) (Escherichia coli K12 MG1655?) (UniProt P0ACF8); test: EMSA; conditions: 1 mM Mg2+, EMSA: 0.5 pmol DNA in 20 µl 5 mM Tris-HCl pH 8.0, 1 mM MgCl2, 50 mM NaCl, 0.01 mM EDTA, 0.01 mM DTT, 3.3 mM imidazole, 40 min at 30°C, 5% PAAG, lysate series …
# T2 sequence: T1 sequence
# [3] = n=6, EMSA: 0.5 pmol DNA in 20 µl 5 mM Tris-HCl pH 8.0, 1 mM MgCl2, 50 mM NaCl, 5% …, lysate series wi
sequence,measurement,setting,value
AGATCTGCAAGTAAAAATGATACTCTTTTTATATTAAATTCAAACGGTTGACATATATATAGCAAGAGGTTTCAGGTGCGTTGTAGCGAGTTTATGTTTATAAAAAGCATAGTAAGCGTTGAAAAATGTAACTTTGAAATAAGTTAGAATAAAAAACAACATACATATATTAATTTAATCCTAAATGAAATTTATTAAAATCTGCAAACTATAATTTTGTGTATAAAAATATAAATGCACATCATCCTGATTATGATTGTGTATTTAATTGGTTGTTATTTGACTACTATCAACTTGTTTTAATTTTATGATAGGTGCAAGGTGGATTATGTTTGATCCGTAGTTTTCATCTGTCAATCATTTGATTTAATTATAAACAGGAGAGTTATCTCGTTCAAAAAAATTCATTGTTTATTGTAAGCGACAAATCTAGA (double strand),binding signal (% of initial fragment),"[1]; p=0.15, n=6, EMSA: 0.5 pmol DNA in 20 µl 5 mM Tris-HCl pH 8.0, 1 mM MgCl2, 50 mM NaCl, 5% PAAG, lysate series …",117
same,binding signal (% of initial fragment),"[2]; p=0.78, n=6",110
"AGATCTTCCTCGGAGAAACACTGACACCCATACAGCTACTGGCGCTCGGCGCTATCATCGCCACTTCAATGGGGTCTACGCTGACAGTACGCAAAGAGAGCAAAATAAAAGAATTAGACATTAATTAAATTTACATTTCTGCATGGTTATGCATAACCATGCAGAATTTCTCGCTACTTTTCCTCTACACCGTCTTTATATATCGAATTATGCAAAAGCATATTTATTCCGAAAATTCCTGGCGAGCAGATAAATAAGAATTGTTCTTATCAATATATCTAACTCATTGAATCTTTATTAGTTTTGTTTTTCACGCTTGTTACCACTATTAGTGTGATAGGAACAGCCAGAATTGCGGAACACATAGCCGGTGCTATACTTAGTCTCGTTAATTACTGGGACATAACATCTAGA (double strand) [dps promoter, up-regulated mutant (positive selection)]",binding signal (% of initial fragment),"[1]; p=0.537, n=6, EMSA: 0.5 pmol DNA in 20 µl 5 mM Tris-HCl pH 8.0, 1 mM MgCl2, 50 mM NaCl, 5% PAAG, lysate series …",129
same,binding signal (% of initial fragment),[2]; n=6,100
"AGATCTGCAAGTAAAAATGATACTCTTTATATTTAAATTCAAACGGTTGACATATATATAGCACGAGGTTTCATGTGCGTAGTAGTGAGTTTATGTTATTAAACAGCTTAGTATGCGTTGGAAAGTGAAGCTTTGTAATAAGTTAGAATAAGACGCGACATACATATAACAATTTAATCTTAAATGTAGTCTATTAGCATTTGCAAACAAACAATTTGCGTATATACTATAAATGCACATCATCCTGATTGTGATTGTGTATTTAACTGGTTCTTATATGACTACTACCAACTAGGTTTAGTCTTATGATAGGTGCAGGATGGATTATGTTTACTCCGTAGTTTCCATCTGTCTATCATTAGATTTAATTATGAACAGGAGAGTTATCCTGTTCAAAAAAAATTCATTGTTTATTGTAAGCGACAAATCTAGA (double strand) [appY promoter, activated mutant (positive selection cycle 9)]",binding signal (% of initial fragment),[1]; [3],97.2
same,binding signal (% of initial fragment),[2]; n=6,102
"AGATCTTCCTCGGAGAAACACTGACACCCATACAGCTACTGGCGCTCGGCGCTATCATCGCCGCTTCAATGGGGTCTACGCAGACAGTACGCAAAGAGAGCAAAATAAAAGAATTAGACATTAATTAAATTTACATTTCTGCATGGTTATGCATAACCTTGCAGAATTTCTCGCTACTTTTCCCCTACACCGTCTTTATATATCGAATTATGCAAAAGCATATTTATTCCGAAAATTCCTGGCGAGCAGATAAATAAGAATTGTTCTTATCAATATATCTAACTCATTGAATCTTTATTAGTTGTGTTTTTCACGCTTGTTACCACTATTAGTGTGATAGGAACAGCCAGAATAGCGGAACACATAGCCGGTGCTATACATAGTCTCGTTAATTACTGGGACATAACATCTAGA (double strand) [dps promoter, down-regulated mutant (negative selection)]",binding signal (% of initial fragment),[1]; [3],113
same,binding signal (% of initial fragment),"[2]; n=6, not significant",117

# From publication PMC7054387
